Here are results for 28 substances from US7858322B2, “Method of determining inhibition of binding to TRPM7 protein” (NoNo, Inc., priority 2003, dated 2010).

Assay in all cases: G assays, titrations or binding assays of peptides
The target in assay [1] is T1, Syntrophin 1 alpha d1 (Homo sapiens, UniProt Q13424).
T1 construct: made in house; host or cells: E. coli (DH5α, BL21 or JM109)
T1 sequence (Q13424 84-177): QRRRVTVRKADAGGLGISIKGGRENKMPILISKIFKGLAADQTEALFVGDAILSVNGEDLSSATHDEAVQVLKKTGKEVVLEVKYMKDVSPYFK
The note with it: peptide demonstrated to bind syntrophin 1 alpha d1 in G assays. As for the experimental part: In one aspect, the invention provides an assay in which a GST/PDZ fusion protein is immobilized on a surface (G assay). The binding of labeled PL peptide (e.g., as listed in TABLE 2 and TABLE 4) to this surface is then measured. In a preferred embodiment, the assay is carried out as follows:
(1) A PDZ-domain polypeptide is bound to a surface, e.g. a protein binding surface. In a preferred embodiment, a GST/PDZ fusion protein containing one or more PDZ domains is bound to a polystyrene 96-well plate. […] In one embodiment, the GST/PDZ fusion protein is bound via an anti-GST antibody that is coated onto the 96-well plate. Adequate binding to the plate can be achieved when: • a. 100 μl per well of 5 μg/ml goat anti-GST polyclonal antibody (Pierce) in PBS is added to a polystyrene 96-well plate (e.g., Nunc Polysorp) at 4° C. for 12 hours. • b. The plate is blocked by addition of 200 μl per well of PBS/BSA for 2 hours at 4° C. • c. The plate is washed 3 times with PBS. • d. 50 μl per well of 5 μg/ml GST/PDZ fusion protein) or, as a negative control, GST polypeptide alone (i.e. not a fusion protein) in PBS/BSA is added to the plate for 2 hours at 4° C. • e. the plate is again washed 3 times with PBS.
(2) Biotinylated PL peptides are allowed to react with the surface by addition of 50 μl per well of 20 μM solution of the biotinylated peptide in PBS/BSA for 10 minutes at 4° C., followed by an additional 20 minute incubation at 25° C. The plate is washed 3 times with ice cold PBS.
(3) The binding of the biotinylated peptide to the GST/PDZ fusion protein surface can be detected using a variety of methods and detectors known to one of skill in the art. In one embodiment, 100 μl per well of 0.5 μg/ml streptavidin-horseradish peroxidase (HRP) conjugate dissolved in BSA/PBS is added and allowed to react for 20 minutes at 4° C. The plate is then washed 5 times with 50 mM Tris pH 8.0 containing 0.2% Tween 20, and developed by addition of 100 μl per well of HRP-substrate solution (TMB, Dako) for 20 minutes at room temperature (RT). The reaction of the HRP and its substrate is terminated by addition of 100 μl per well of 1 M sulfuric acid, and the optical density (O.D.) of each well of the plate is read at […].
(4) Specific binding of a PL peptide and a PDZ domain polypeptide is determined by comparing the signal from the well(s) in which the PL peptide and PDZ domain polypeptide are combined, with the background signal(s). The background signal is the signal found in the negative control(s). Typically a specific or selective reaction will be at least twice background signal, more typically more than 5 times background, and most typically 10 or more times the background signal. In addition, a statistically significant reaction will involve multiple measurements of the reaction with the signal and the background differing by at least two standard errors, more typically four standard errors, and most typically six or more standard errors. Correspondingly, a statistical test (e.g. a T-test) comparing repeated measurements of the signal with repeated measurements of the background will result in a p-value <0.05, more typically a p-value <0.01, and most typically a p-value <0.001 or less. As noted, in an embodiment of the G assay, the signal from binding of a given PL peptide to immobilized (surface bound) GST polypeptide alone is one suitable negative control (sometimes referred to as B1). Because all measurement are done in multiples (i.e. at least duplicate) the arithmetic mean (or, equivalently, average.) of several measurements is used in determining the binding, and the standard error of the mean is used in determining the probable error in the measurement of the binding. The standard error of the mean of N measurements equals the square root of the following: the sum of the squares of the difference between each measurement and the mean, divided by the product of (N) and (N−1). […]

In assay [2] the target is T2, INADL d3 (Homo sapiens, UniProt Q8NI35).
T2 construct: made in house; host or cells: E. coli (DH5α, BL21 or JM109)
T2 sequence (Q8NI35 with tags, fused parts or gaps): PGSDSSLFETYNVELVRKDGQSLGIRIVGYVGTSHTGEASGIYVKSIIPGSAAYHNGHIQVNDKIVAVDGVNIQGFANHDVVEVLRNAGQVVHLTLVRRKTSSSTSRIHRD
The note with it: peptide demonstrated to bind INADL d3 in G assays.
Method: (§1) In one aspect, the invention provides an assay in which a GST/PDZ fusion protein is immobilized on a surface (G assay). […] In a preferred embodiment, the assay is carried out as follows:
(§2) (3) The binding of the biotinylated peptide to the GST/PDZ fusion protein surface can be detected using a variety of methods and detectors known to one of skill in the art. In one embodiment, 100 μl per well of 0.5 μg/ml streptavidin-horseradish peroxidase (HRP) conjugate dissolved in BSA/PBS is added and allowed to react for 20 minutes at 4° C. The plate is then washed 5 times with 50 mM Tris pH 8.0 containing 0.2% Tween 20, and developed by addition of 100 μl per well of HRP-substrate solution (TMB, Dako) for 20 minutes at room temperature (RT). The reaction of the HRP and its substrate is terminated by addition of 100 μl per well of 1 M sulfuric acid, and the optical density (O.D.) of each well of the plate is read at 450 um.
(§3) (4) Specific binding of a PL peptide and a PDZ domain polypeptide is determined by comparing the signal from the well(s) in which the PL peptide and PDZ domain polypeptide are combined, with the background signal(s). […] Typically a specific or selective reaction will be at least twice background signal, more typically more than 5 times background, and most typically 10 or more times the background signal. […] Correspondingly, a statistical test (e.g. a T-test) comparing repeated measurements of the signal with repeated measurements of the background will result in a p-value <0.05, more typically a p-value <0.01, and most typically a p-value <0.001 or less. As noted, in an embodiment of the G assay, the signal from binding of a given PL peptide to immobilized (surface bound) GST polypeptide alone is one suitable negative control (sometimes referred to as B1). Because all measurement are done in multiples (i.e. at least duplicate) the arithmetic mean (or, equivalently, average.) of several measurements is used in determining the binding, and the standard error of the mean is used in determining the probable error in the measurement of the binding. The standard error of the mean of N measurements equals the square root of the following: the sum of the squares of the difference between each measurement and the mean, divided by the product of (N) and (N−1). Thus, in one embodiment, specific binding of the PDZ protein to the platebound peptide is determined by comparing the mean signal (“mean S”) and standard error of the signal (“SE”) for a particular PL-PDZ combination with the mean B1.

Assay [3] addresses T3, PAR3 d3 (Homo sapiens, UniProt Q8TEW0, R682S).
T3 construct: made in house; host or cells: E. coli (DH5α, BL21 or JM109)
The note with it: peptide demonstrated to bind PAR3 d3 in G assays.
Method: as §1, §2, §3

Assay [4] has as its target T4, RIM2 d1 (Homo sapiens, UniProt Q9UQ26).
T4 construct: made in house; host or cells: E. coli (DH5α, BL21 or JM109)
T4 sequence (Q9UQ26 632-757): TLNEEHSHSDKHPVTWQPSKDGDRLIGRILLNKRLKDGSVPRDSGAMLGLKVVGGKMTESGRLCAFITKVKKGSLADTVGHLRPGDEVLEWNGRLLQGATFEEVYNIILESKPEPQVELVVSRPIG
Conditions: peptide demonstrated to bind RIM2 d1 in G assays.

The target of assay [5] is T5, ZO-1 d2 (Homo sapiens, UniProt Q07157, DEL264-264).
T5 construct: made in house; host or cells: E. coli (DH5α, BL21 or JM109)
T5 sequence (Q07157 with tags, fused parts or gaps DEL264-264): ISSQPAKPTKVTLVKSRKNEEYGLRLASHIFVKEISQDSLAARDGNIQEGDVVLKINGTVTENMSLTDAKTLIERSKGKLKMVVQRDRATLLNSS
Conditions: peptide demonstrated to bind ZO-1 d2 in G assays.
Method: as §1, §2, §3

No end group written: not given here. *: point of attachment. Biotin = O=C1N[C@H]2[C@H](CS[C@H]2CCCCC(=O)*)N1

T3 sequence (Q8TEW0 with tags, fused parts or gaps R682S): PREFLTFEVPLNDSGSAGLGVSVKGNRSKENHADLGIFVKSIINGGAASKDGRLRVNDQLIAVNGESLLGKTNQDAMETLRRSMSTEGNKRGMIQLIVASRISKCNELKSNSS

Consider AAGGRSARGGRLQGRRETAL, for which the POZ domain bound result in assay [1] was “Syntrophin 1 alpha D1”.
As to AVGGRPARGGRLQGRRQTQV, the POZ domain bound entry in assay [1] is given as “Syntrophin 1 alpha D1”.
Take “DFRPSFKHILFRRARRGFRQ (Biotin-DFRPSFKHILFRRARRGFRQ)”: the POZ domain bound result in assay [2] is given as “INADL D3”; in assay [3], “PAR3 D3”; in assay [4], “RIM2 D1”; in assay [1], “Syntrophin 1 alpha D1”; in assay [5] it was “ZO-1 D2”.
Turning to “DTLLLTENEGDKTEEQVSYV (Biotin-DTLLLTENEGDKTEEQVSYV)”, the POZ domain bound entry in assay [3] is “PAR3 D3”; in assay [1], “Syntrophin 1 alpha D1”.
For the substance “FHSKTAGANTTDKELEVLSL (Biotin-FHSKTAGANTTDKELEVLSL)”, the POZ domain bound entry was “INADL D3” in assay [2], “PAR3 D3” in assay [3], “RIM2 D1” in assay [4] and “ZO-1 D2” in assay [5].
Regarding “FNGSSNGHVYEKLSSIESDV (Biotin-FNGSSNGHVYEKLSSIESDV)”, the POZ domain bound result in assay [1] is listed as “Syntrophin 1 alpha D1”.
As for “GRWTGRAMSAWKPTRRETEV (Biotin-GRWTGRAMSAWKPTRRETEV)”, the POZ domain bound entry in assay [2] was “INADL D3”; in assay [1], “Syntrophin 1 alpha D1”.
With “HDFRRAFKKILARGDRKRIV (Biotin-HDFRRAFKKILARGDRKRIV)”, the POZ domain bound entry is “INADL D3” in assay [2]; “PAR3 D3” in assay [3]; “RIM2 D1” in assay [4]; “Syntrophin 1 alpha D1” in assay [1]; “ZO-1 D2” in assay [5].
The matching figures for “HHLVAQRDIRQFQLQHWLAI (Biotin-HHLVAQRDIRQFQLQHWLAI)”: “INADL D3”, “PAR3 D3”, “RIM2 D1”, “Syntrophin 1 alpha D1” and “ZO-1 D2”.
As for “HSCCNRARQERLQRRRETQV (Biotin-HSCCNRARQERLQRRRETQV; cysteine pairing not given here)”, the POZ domain bound entry is listed as “INADL D3” in assay [2], “PAR3 D3” in assay [3], “Syntrophin 1 alpha D1” in assay [1] and “ZO-1 D2” in assay [5].
Consider “ILNSIQVMRAQMNQIQSVEV (Biotin-ILNSIQVMRAQMNQIQSVEV)”, for which the POZ domain bound result in assay [2] is given as “INADL D3”; in assay [3], “PAR3 D3”; in assay [1], “Syntrophin 1 alpha D1”; in assay [5], “ZO-1 D2”.
Regarding “KHSRKSSSYSSSSTTVKTSY (Biotin-KHSRKSSSYSSSSTTVKTSY)”, the POZ domain bound result in assay [2] is given as “INADL D3”; in assay [3], “PAR3 D3”; in assay [4] it was “RIM2 D1”; in assay [5], “ZO-1 D2”.
As to “KKKKQPGNSTKESESTNSVRLML (Biotin-KKKKQPGNSTKESESTNSVRLML)”, the POZ domain bound entry is reported as “INADL D3” in assay [2]; “PAR3 D3” in assay [3]; “RIM2 D1” in assay [4]; “Syntrophin 1 alpha D1” in assay [1]; “ZO-1 D2” in assay [5].
For the substance “LAVLAYSITLVMLWSIWQYA (Biotin-LAVLAYSITLVMLWSIWQYA)”, the POZ domain bound result was “INADL D3” in assay [2]; “PAR3 D3” in assay [3]; “RIM2 D1” in assay [4]; “Syntrophin 1 alpha D1” in assay [1]; “ZO-1 D2” in assay [5].
For “PIPAGGCTFSGIFPTLTSPL (Biotin-PIPAGGCTFSGIFPTLTSPL)”, the values for the POZ domain bound result in assay [2], in assay [3] and in assay [1] were “INADL D3”, “PAR3 D3” and “Syntrophin 1 alpha D1”, respectively.
Consider “PYSELNYETSHYPASPDSWV (Biotin-PYSELNYETSHYPASPDSWV)”, for which, in assay [1], the POZ domain bound entry was “Syntrophin 1 alpha D1”.
With “QDFRRAFRRILARPWTQTAW (Biotin-QDFRRAFRRILARPWTQTAW)”, the POZ domain bound entry is “INADL D3” in assay [2]; “PAR3 D3” in assay [3]; “RIM2 D1” in assay [4]; “Syntrophin 1 alpha D1” in assay [1]; “ZO-1 D2” in assay [5].
Take QISPGGLEPPSEKHFRETEV: the POZ domain bound result in assay [1] was “Syntrophin 1 alpha D1”.
On the same count and under the same terms, the entry for “TFKGTPTAENPEYLGLDVPV (Biotin-TFKGTPTAENPEYLGLDVPV)” is “Syntrophin 1 alpha D1”; for “TGSALQAWRHTSRQATESTV (Biotin-TGSALQAWRHTSRQATESTV)” it is “Syntrophin 1 alpha D1”.
Turning to “TQGFPGPATWRRISSLESEV (Biotin-TQGFPGPATWRRISSLESEV)”, the POZ domain bound result in assay [2] is reported as “INADL D3”; in assay [1], “Syntrophin 1 alpha D1”.
“VDPNSPAAKKKYVSYNNLVI (Biotin-VDPNSPAAKKKYVSYNNLVI)”: the POZ domain bound entry is “INADL D3” in assay [2], “PAR3 D3” in assay [3], “RIM2 D1” in assay [4] and “ZO-1 D2” in assay [5].
For “VHDAESSOEDGYDWGPATDL: peptide, SEQ ID NO:330 (Biotin-VHDAESSDEDGYDWGPATDL)”, the POZ domain bound entry in assay [1] was “Syntrophin 1 alpha D1”.
As to “VPGALDYAAFSSALYGESDL (Biotin-VPGALDYAAFSSALYGESDL)”, the POZ domain bound result in assay [1] was “Syntrophin 1 alpha D1”.
Turning to YGRKKRRQRRRAVAATSANL, the POZ domain bound result in assay [2] was “INADL D3”; in assay [3], “PAR3 D3”; in assay [4], “RIM2 D1”; in assay [5], “ZO-1 D2”.
The matching figures for YGRKKRRQRRREYLGLDVPV: “INADL D3”, “PAR3 D3”, “RIM2 D1” and “ZO-1 D2”.
Regarding “YGRKKRRQRRRKLSSIESDV (Biotin-YGRKKRRQRRRKLSSIESDV)”, the results for the POZ domain bound entry in assay [3], in assay [1] and in assay [5] were “PAR3 D3”, “Syntrophin 1 alpha D1” and “ZO-1 D2”, respectively.
For the substance YGRKKRRQRRRNDNIALLVQ, the POZ domain bound entry is “PAR3 D3” in assay [3], “RIM2 D1” in assay [4], “Syntrophin 1 alpha D1” in assay [1] and “ZO-1 D2” in assay [5].
